Source: patent US20110256144A1 (TORAY INDUSTRIES, published 2011)

T1: human CAPRIN-1 protein on human cancer cells (human, UniProt Q14444 2-709)
T1 sequence (looked up): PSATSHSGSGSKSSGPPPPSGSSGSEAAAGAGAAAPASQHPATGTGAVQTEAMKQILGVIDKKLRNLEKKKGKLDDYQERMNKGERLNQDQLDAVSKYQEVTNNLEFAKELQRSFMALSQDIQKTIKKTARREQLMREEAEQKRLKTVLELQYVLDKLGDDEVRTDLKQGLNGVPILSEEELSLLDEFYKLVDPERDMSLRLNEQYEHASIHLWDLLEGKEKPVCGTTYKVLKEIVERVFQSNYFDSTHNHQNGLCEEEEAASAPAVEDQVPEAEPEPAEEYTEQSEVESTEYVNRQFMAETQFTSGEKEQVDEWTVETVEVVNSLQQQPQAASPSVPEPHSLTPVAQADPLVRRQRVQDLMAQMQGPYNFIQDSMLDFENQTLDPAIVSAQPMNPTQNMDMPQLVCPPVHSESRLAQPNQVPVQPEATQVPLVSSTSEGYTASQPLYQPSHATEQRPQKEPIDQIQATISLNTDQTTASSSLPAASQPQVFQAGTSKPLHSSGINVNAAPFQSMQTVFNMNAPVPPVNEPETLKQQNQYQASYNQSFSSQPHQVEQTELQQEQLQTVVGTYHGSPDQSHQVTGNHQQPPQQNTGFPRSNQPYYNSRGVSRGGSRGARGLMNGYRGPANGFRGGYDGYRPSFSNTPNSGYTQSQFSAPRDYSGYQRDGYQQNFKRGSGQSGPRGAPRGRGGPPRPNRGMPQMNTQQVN

B1: monoclonal antibody #1 against CAPRIN-1 (antibody, V domains shown)
VH: EVQLHQFGAELVKPGASVKISCKASGYTFTDYNMDWVKQSHGKSLEWIGDINPNYDSTSYNQKFKGKATLTVDKSSSTAYMELRSLTSEDTAVYYCARSRSYDYEGFAYWGQGTLVTVSA
VL: DIQMTQSPASLSASVGETVTITCRASGNIHNYLAWYQQKQGKSPQLLVYNAKTLADGVPSRFSGSGSGTQYSLKINSLQPEDFGSYYCQHFWSTLTFGAGTKLELKR
notes: also called the #1 monoclonal antibody to CAPRIN-1; antibody (a)
B2: monoclonal antibody #4 against CAPRIN-1 (antibody, V domains shown)
VH: B1 VH
VL: SGDRVSLSCRASQSISNYLHWYQQKSHESPRLLIKYASQSISGIPSRFSGSGSGTDFTLSINSVETEDFGMYFCQQSNSWPYTFGAGTKLEIKQ
notes: Mouse monoclonal antibody from a hybridoma; also called the #4 monoclonal antibody to CAPRIN-1; antibody (d)
B3: monoclonal antibody #3 against CAPRIN-1 (antibody, V domains shown)
VH: B1 VH
VL: DIQLTQSPASLSASVGETVTITCRASGNIHNYLAWYQQKQGKSPQLLVYNAKTLADGVPSRFSGSGSGTQYSLKINSLQPEDFGSYYCQHFWSTLTFGGGTKLEIK
notes: Mouse monoclonal antibody from a hybridoma; also called the #3 monoclonal antibody to CAPRIN-1; antibody (c)
B4: monoclonal antibody #7 against CAPRIN-1 (antibody, V domains shown)
VH: LQESGAELARPGASVKLSCKASGYTFTSYWMQWVKQRPGQGLEWIGAIYPGDGDTRYTQKFKGKATLTADKSSSTAYMQLSSLASEDSAVYYCARGEYGNYFAYWGQGTTVTVSS
VL: TSDASLGERVTITCKASQDINSYLSWFQQKPGKSPKTLIYRANRLVDGVPSRFSGSGSGQDYSLTISSLEYEDMGIYYCLQYDEFPLTFGGGTKLEIKQ
notes: Mouse monoclonal antibody from a hybridoma; also called the #7 monoclonal antibody to CAPRIN-1; antibody (g)

Each binder was assayed against T1, human CAPRIN-1 protein on human cancer … (assay: cell-based or functional assay).

ADCC activity (chromium 51 release, mouse lymphocytes), MDA-MB-157 cells | CDC activity (chromium 51 release, rabbit serum), MDA-MB-231V cells | Binder
≥ 20% | ≥ 30% | B1
≥ 20% | ≥ 30% | B2
≥ 20% | ≥ 30% | B3
≥ 20% | ≥ 30% | B4

These binders were tested against T1, human CAPRIN-1 protein on human cancer … (assay: flow cytometry, hybridoma supernatant on human breast cancer, glioma, kidney, gastric, colon, lung cancer and leukemia cell lines; increase in MFI over control).
Procedure: Each cell line (10⁶ cells) was centrifuged in a 1.5-ml microcentrifugal tube. The hybridoma supernatants (100 μl each) containing monoclonal antibodies #1 to #10 against CAPRIN-1 prepared in Example 4 reacting to cancer cell surfaces were separately added thereto and then left to stand on ice for 1 hour. After washing with PBS, each resultant was suspended in an FITC-labeled goat anti-mouse IgG antibody (Invitrogen Corporation) diluted 500-fold with PBS containing 0.1% FBS and then left to stand on ice for 1 hour. After washing with PBS, fluorescence intensity was measured using FACSCalibur (Becton, Dickinson and Company). Meanwhile, a procedure similar to the above was performed using, as a control, the control antibody prepared in (5) above instead of the hybridoma supernatants containing monoclonal antibodies #1 to […] against CAPRIN-1, so that a control was prepared. […] Based on the above, it was confirmed that the CAPRIN-1 protein was expressed on the cell surfaces of the above human cancer cell lines. In addition, the rate of increase in fluorescence intensity is represented by the rate of increase in mean fluorescence intensity (MFI value) in cells. It was calculated by the following equation.

increase in fluorescence intensity over control | Binder
≥ 30% | B1
≥ 30% | B2
≥ 30% | B3
≥ 30% | B4
